In patent US20200148761A1 (Teva, published 2020):

Molecular target: T1, human α-CGRP 1-36-COOH (human)
T1 construct: free C-terminal carboxyl, not amidated; also called 1-36 (not amidated at the C-terminus)
T1 peptide: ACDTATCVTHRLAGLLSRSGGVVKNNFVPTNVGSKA
Experiment: Biacore competition, 50 nM G1 Fab with 10 µM peptide, read on human α-CGRP chip
Description: Y axis represents percentage of binding blocked by the presence of the competing peptide compared with the binding in the absence of the competing peptide. […]

B1: antibody G1 Fab fragment (Fab, V domains shown)
VH: EVQLVESGGGLVQPGGSLRLSCAASGFTFSNYWISWVRQAPGKGLEWVAEIRSESDASATHYAEAVKGRFTISRDNAKNSLYLQMNSLRAEDTAVYYCLAYFDYGLAIQNYWGQGTLVTVSS
VL: EIVLTQSPATLSLSPGERATLSCKASKRVTTYVSWYQQKPGQAPRLLIYGASNRYLGIPARFSGSGSGTDFTLTISSLEPEDFAVYYCSQSYNYPYTFGQGTKLEIK
  percentage of binding blocked by competing peptide: ~40%
